In general, IC50 refers to the concentration at which inhibition is half-maximal. In general, Kd refers to the equilibrium constant for the complex coming apart. Read a high Kd as lower affinity.

In assay [1] the target is Delta SARS-CoV-2 spike protein, plate-coated (MSD) (SARS-CoV-2) (UniProt P0DTC2). Briefly: MSD competition vs labelled ACE2.
Assay [2] concerns the target B.1.1.7 (Alpha) SARS-CoV-2 spike protein, plate-coated (MSD) (SARS-CoV-2) (UniProt P0DTC2). Briefly: MSD competition vs labelled ACE2.
The target in assay [3] is B.1.351 (Beta) SARS-CoV-2 spike protein, plate-coated (MSD) (SARS-CoV-2) (UniProt P0DTC2). Briefly: MSD competition vs labelled ACE2.
The target of assay [4] is Omicron SARS-CoV-2 spike protein, plate-coated (MSD) (SARS-CoV-2) (UniProt P0DTC2). Briefly: MSD competition vs labelled ACE2.
Assay [5] concerns the target SARS-CoV-2 Delta (B.1.617.2) spike RBD (SPR) (SARS-CoV-2) (UniProt P0DTC2). Briefly: SPR.
The target is the same in assay [6]. Briefly: SPR, 1:1 model. Background: In SPR one partner is held on a chip, and binding of the other changes the refractive index at the surface.
Assay [7] concerns the target Alpha SARS-CoV-2 spike on pseudotyped lentivirus (SARS-CoV-2) (UniProt P0DTC2). Briefly: cell-based or functional assay.
Assay [8] addresses Beta SARS-CoV-2 spike on pseudotyped lentivirus (SARS-CoV-2) (UniProt P0DTC2). Briefly: cell-based or functional assay.

Regarding Bamlanivimab + Etesevimab, the IC50 in assay [1] was 0.16 nM; in assay [2] it was 0.08 nM; in assay [3], 0.31 nM; in assay [4], 0.59 nM.

Regarding REGN10933 (Casirivimab) (antibody), the Kd in assay [5] and in assay [6] was 0.0696 nM in each case.

Consider REGN10987 (Imdevimab) (antibody), for which the Kd in assay [5] and in assay [6] was 0.105 nM throughout.

In the case of Sotrovimab (antibody), the Pseudovirus Neutralization (IC50, nM) in assay [7] worked out at 3.32 nM; in assay [8], 0.01 nM.

These data come from patent publication US20240327815A1.
